Assay results reported in patent US20240092867A1 (UNIVERSITY OF CHICAGO, published 2024).

B1: FabCol-p(FgHBD) recombinant fusion protein (Fab)
light: EIVLTQSPGTLSLSPGERATLSCRASQSVSSSYLAWYQQKPGQAPRLLIYGASSRATGIPDRFSGSGSGTDFTLTISRLEPEDFAVYYCQQAIGFPQTFGQGTKVEIKRTVAAPSVFIFPPSDEQLKSGTASVVCLLNNFYPREAKVQWKVDNALQSGNSQESVTEQDSKDSTYSLSSTLTLSKADYEKHKVYACEVTHQGLSSPVTKSFNRGECGAGGGSGGGHRPLDKKREEAPSLRPAPPPISGGGYRARPAKAAATQKKVERKAPDAGGGSGGGSGGGHRPLDKKREEAPSLRPAPPPISGGGYRARPAKAAATQKKVERKAPDAGGGSGGGSGGGHRPLDKKREEAPSLRPAPPPISGGGYRARPAKAAATQKKVERKAPDAGGGT
heavy: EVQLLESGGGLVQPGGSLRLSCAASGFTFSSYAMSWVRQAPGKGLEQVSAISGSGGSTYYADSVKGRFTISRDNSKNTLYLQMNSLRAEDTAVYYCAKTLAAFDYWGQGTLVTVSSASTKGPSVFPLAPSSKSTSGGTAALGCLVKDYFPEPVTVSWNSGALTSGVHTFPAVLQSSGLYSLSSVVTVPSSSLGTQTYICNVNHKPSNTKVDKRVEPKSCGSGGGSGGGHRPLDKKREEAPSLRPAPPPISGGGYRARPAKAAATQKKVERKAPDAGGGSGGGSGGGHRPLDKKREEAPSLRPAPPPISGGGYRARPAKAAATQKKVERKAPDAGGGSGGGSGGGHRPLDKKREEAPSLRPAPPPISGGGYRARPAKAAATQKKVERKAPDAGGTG
notes: Three repeats of FgHBD at the C-termini of both Fab chains
B2: FabCol-FgHBD conjugates (Fab)
light: EIVLTQSPGTLSLSPGERATLSCRASQSVSSSYLAWYQQKPGQAPRLLIYGASSRATGIPDRFSGSGSGTDFTLTISRLEPEDFAVYYCQQAIGFPQTFGQGTKVEIKRTVAAPSVFIFPPSDEQLKSGTASVVCLLNNFYPREAKVQWKVDNALQSGNSQESVTEQDSKDSTYSLSSTLTLSKADYEKHKVYACEVTHQGLSSPVTKSFNRGEC
heavy: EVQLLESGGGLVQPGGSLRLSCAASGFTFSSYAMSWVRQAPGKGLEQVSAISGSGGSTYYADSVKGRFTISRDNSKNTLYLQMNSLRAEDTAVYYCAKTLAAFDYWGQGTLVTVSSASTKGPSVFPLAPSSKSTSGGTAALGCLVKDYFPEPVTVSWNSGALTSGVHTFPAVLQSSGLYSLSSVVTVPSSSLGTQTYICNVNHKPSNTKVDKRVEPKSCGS
peptide: GCGGSLRPAPPPISGGGYRARPAKAAATQKKVERKAPDA
modifications: chemically conjugated to FabCol with sulfo-SMCC crosslinker; multiple copies per FabCol (shift of about 35 kDa)
notes: Chemical conjugate
B3: vWF A1 HBD (24 residues, C-terminal Cys) (peptide)
peptide: YIGLKDRKRPSELRRIASQVKYAC
notes: also the peptide coupled into the PEG matrix; also called vWF HBD-Cys; vWF A1 HBD peptide

Tests used:
[1] = target: T1, placental growth factor (PlGF)-1 (human, UniProt P49763-2 19-149); experiment: ELISA, peptide coated
T1 construct: mature; Purchased in mature form
T1 sequence (looked up): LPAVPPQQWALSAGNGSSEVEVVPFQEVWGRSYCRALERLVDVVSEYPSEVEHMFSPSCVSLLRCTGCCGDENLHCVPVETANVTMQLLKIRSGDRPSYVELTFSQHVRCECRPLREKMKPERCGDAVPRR
Experimental: (§1) (A) The location of laminin-derived peptides in the LG domain of laminin α3, α4, and α5 chains. (B-F) Affinity of heparin and GFs against chemically synthesized peptides derived from the LG domain of laminin α3, α4, and α5 chains. ELISA plates were coated with 10 μg/mL laminin peptide and further incubated with (B) biotinylated heparin, (C) VEGF-A165 and VEGF-A121, (D) PlGF-2 and PlGF-1, (E) PDGF-BB, or (F) FGF-2. Concentrations were 1 μg/mL for GFs and 10 μg/mL for heparin. Bound heparin was detected with streptavidin, and bound GFs with a specific antibody for each GF (n=4, mean±SEM). Statistical analyses were done using the Mann-Whitney U test by comparing the signals obtained from the laminin peptide- and the BSA-coated wells. *p<0.05, **p<0.01.
(§2) ELISA tests were performed as described above. […] 1 μg/mL of BSA served as non-binding protein control. After blocking with 2% BSA PBS-0.05% Tween 20 (PBS-T) solution, 1 μg/mL of the recombinant human proteins (VEGF-A121, VEGF-A165, PlGF-1, PlGF-2, PDGF-BB or FGF-2) or 10 μg/mL of biotinylated heparin (Sigma-Aldrich) were added. Bound GF was detected with biotinylated antibodies for human VEGF, PlGF, PDGF-BB, or FGF-2 (R&D Systems). The antibodies were detected by streptavidin-HRP (R&D Systems).

[2] = target: T2, vascular endothelial growth factor (VEGF)-A121 (human, UniProt P15692-9 27-147); experiment: ELISA, peptide coated
T2 construct: mature; Purchased in mature form, not glycosylated
T2 sequence (looked up): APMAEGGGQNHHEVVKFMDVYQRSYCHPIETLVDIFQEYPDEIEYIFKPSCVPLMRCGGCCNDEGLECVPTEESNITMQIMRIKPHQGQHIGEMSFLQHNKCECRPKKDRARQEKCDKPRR
Experimental: as §1, §2

[3] = target: T3, placental growth factor (PlGF)-2 (human, UniProt P49763-3 19-170); experiment: ELISA, peptide coated, GF 1 µg/mL
T3 construct: mature; Purchased in mature form
T3 sequence (looked up): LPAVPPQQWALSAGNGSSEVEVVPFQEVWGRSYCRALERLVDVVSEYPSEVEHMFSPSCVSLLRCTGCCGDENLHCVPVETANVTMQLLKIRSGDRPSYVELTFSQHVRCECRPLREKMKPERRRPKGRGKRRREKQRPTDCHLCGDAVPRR
Experimental: as §1, §2

[4] = target: T4, vascular endothelial growth factor (VEGF)-A165 (human, UniProt P15692-4 27-191); experiment: ELISA, peptide coated, GF 1 µg/mL
T4 construct: mature; Purchased in mature form, not glycosylated
Experimental: as §1, §2

[5] = target: T5, recombinant human syndecan-1 (human, UniProt P18827 23-254, limits assumed); experiment: ELISA, peptide coated, syndecan 1 µg/mL, anti-His detection
T5 construct: Histidine tag of unstated position and length
T5 sequence (looked up): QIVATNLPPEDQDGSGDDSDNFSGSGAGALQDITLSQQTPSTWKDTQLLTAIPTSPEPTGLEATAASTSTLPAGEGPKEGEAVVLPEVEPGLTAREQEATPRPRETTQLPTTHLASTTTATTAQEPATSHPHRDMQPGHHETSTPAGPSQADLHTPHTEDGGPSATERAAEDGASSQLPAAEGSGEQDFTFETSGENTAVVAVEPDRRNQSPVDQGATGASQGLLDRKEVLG
Experimental: (§3) ELISA tests were performed as described above. In brief, ELISA plates were coated with 1 μg/mL laminin peptide (sequences are described in Table 1, chemically synthesized by Genscript) in PBS for 2 hrs at 37° C. 1 μg/mL of BSA served as non-binding protein control. After blocking with 2% BSA PBS-T solution, 1 μg/mL of the recombinant human syndecan-1, syndecan-2, syndecan-3, syndecan-4 (all syndecan proteins are histidine-tagged; SinoBiological) were added. Bound GF was detected with anti-histidine tag antibody (1:1000 dilution, BioLegend).

[6] = target: T6, recombinant human syndecan-2 (human, UniProt P34741 19-144, limits assumed); experiment: as above
T6 construct: Histidine tag of unstated position and length
T6 sequence (P34741 19-144 limits assumed): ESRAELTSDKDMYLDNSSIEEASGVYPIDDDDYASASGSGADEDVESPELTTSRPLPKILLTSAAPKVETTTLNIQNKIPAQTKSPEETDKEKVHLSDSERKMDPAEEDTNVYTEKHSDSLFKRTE
Experimental: as §3

[7] = target: T7, recombinant human syndecan-4 (human, UniProt P31431 19-145, limits assumed); experiment: as above
T7 construct: Histidine tag of unstated position and length
T7 sequence (looked up): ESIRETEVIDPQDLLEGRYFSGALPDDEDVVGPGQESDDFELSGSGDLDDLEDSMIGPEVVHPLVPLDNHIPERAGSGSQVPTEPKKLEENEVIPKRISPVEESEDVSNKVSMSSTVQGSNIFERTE
Experimental: as §3

[8] = target: T8, fibroblast growth factor (FGF)-2 (human, UniProt P09038 143-288); experiment: ELISA; peptide coated (10 µg/mL, legend paragraph 53), 1 µg/mL FGF-2 in solution, BSA-coated wells as control [panel F]
T8 construct: mature; Purchased in mature form
T8 sequence (P09038 143-288): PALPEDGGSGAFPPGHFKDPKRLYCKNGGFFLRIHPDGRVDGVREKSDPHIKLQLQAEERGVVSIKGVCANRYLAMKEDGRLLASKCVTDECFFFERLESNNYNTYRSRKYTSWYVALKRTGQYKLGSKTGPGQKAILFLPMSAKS
Experimental: as §1, §2

[9] = target: T9, platelet-derived growth factor (PDGF)-BB (human, UniProt P01127 82-190); experiment: ELISA; peptide coated (10 µg/mL, legend paragraph 53), GF in solution, BSA-coated wells as control [panel E]
T9 construct: mature; Purchased in mature form
T9 sequence (P01127 82-190): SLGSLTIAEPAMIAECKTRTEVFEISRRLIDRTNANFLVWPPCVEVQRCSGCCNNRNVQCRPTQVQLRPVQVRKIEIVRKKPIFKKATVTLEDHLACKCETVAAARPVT
Experimental: as §1, §2

bovine type I collagen = target: T10, bovine type I collagen (bovine, UniProt P02453 178-1191; P02465 89-1102); experiment: ELISA, collagen I coated, 0.01-30 nM binder
T10 construct: PureCol, Advanced BioMatrix; coated on the plate; also called collagen I; PureCol
T10 sequence (P02453 178-1191, chain 1 of 2): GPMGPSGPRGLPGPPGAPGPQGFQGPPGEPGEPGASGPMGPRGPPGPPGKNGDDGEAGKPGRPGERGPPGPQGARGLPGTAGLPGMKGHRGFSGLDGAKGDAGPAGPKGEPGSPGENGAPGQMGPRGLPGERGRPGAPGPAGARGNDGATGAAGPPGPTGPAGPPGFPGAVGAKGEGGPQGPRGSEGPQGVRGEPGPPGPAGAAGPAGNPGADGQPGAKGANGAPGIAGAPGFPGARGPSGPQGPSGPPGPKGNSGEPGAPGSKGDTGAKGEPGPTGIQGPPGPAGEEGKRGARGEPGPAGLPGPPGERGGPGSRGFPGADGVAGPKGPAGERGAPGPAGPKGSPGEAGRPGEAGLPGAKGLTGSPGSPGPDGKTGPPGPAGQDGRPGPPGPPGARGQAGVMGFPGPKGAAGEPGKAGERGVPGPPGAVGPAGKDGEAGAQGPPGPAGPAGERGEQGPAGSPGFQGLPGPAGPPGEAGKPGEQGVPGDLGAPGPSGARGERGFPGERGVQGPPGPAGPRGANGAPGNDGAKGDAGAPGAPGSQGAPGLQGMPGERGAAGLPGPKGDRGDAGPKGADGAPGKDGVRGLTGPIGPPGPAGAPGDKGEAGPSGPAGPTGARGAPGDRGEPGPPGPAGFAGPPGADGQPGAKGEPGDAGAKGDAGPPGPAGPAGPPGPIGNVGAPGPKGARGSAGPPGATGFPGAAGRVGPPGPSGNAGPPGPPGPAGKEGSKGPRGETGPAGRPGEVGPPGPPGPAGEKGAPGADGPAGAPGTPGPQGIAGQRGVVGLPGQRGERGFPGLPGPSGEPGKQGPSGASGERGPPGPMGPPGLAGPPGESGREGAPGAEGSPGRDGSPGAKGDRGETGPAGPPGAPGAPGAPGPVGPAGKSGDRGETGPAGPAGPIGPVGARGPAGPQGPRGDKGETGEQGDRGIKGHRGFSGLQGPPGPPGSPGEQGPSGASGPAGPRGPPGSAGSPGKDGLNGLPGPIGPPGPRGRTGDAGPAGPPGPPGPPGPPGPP
T10 sequence (P02465 89-1102, chain 2 of 2): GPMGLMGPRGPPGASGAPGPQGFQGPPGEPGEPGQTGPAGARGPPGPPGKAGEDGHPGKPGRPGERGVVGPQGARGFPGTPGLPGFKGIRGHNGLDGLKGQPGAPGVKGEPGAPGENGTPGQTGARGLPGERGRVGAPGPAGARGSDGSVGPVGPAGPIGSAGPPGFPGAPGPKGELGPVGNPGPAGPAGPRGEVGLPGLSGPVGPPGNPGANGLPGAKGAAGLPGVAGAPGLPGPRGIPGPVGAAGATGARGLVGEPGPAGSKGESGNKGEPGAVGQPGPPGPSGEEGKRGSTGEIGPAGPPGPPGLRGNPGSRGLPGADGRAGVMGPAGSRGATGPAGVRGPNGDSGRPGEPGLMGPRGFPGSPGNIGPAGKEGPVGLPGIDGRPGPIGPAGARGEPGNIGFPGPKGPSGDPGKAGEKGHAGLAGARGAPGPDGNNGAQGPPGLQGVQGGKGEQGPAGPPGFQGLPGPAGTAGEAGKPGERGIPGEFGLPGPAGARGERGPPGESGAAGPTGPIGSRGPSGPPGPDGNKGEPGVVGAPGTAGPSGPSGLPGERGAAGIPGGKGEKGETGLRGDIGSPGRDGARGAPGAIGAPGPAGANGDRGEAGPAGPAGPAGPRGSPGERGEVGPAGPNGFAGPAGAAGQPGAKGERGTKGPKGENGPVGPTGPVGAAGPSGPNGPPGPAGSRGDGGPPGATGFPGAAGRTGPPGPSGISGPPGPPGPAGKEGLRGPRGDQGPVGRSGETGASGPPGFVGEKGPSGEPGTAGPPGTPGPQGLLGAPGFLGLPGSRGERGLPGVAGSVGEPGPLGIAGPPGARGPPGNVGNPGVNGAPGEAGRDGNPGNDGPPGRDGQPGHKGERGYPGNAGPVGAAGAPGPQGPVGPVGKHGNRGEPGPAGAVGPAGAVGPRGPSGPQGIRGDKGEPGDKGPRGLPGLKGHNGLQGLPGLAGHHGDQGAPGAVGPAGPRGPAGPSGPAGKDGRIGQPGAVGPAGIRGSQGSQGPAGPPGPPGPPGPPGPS
Experimental: ELISA plates (NUNC MaxiSorp, ThermoFisher Scientific) were coated overnight with 10 μg/mL of bovine type I collagen (PureCol, Advanced BioMatrix, San Diego CA, USA) at room temperature. The plate was further blocked using 2% bovine serum albumine (BSA) for 2 h at room temperature. […] The plate was washed thrice in PBST, and an horseradish peroxidase-conjugated anti-human Fab antibody (Jackson ImmunoResearch,) was used to detect bound FabCol variants. […] Absorbance at 450 nm was read using […], and corrected using the absorbance at 570 nm. Curve fits and dissociation constant KD were computed using Prism (GraphPad Software Inc., USA).

recombinant human BMP-2 = target: T11, recombinant human BMP-2 (human, UniProt P12643 283-396); experiment: ELISA, rhBMP-2 coated 50 nM, binder 50 nM
T11 construct: also called rhBMP-2
T11 sequence (P12643 283-396 limits assumed): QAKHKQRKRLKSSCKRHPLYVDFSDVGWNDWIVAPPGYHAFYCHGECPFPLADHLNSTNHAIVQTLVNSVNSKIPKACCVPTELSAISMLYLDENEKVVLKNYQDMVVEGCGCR
Experimental: ELISA plates (NUNC MaxiSorp) were coated with 50 nM of recombinant human BMP-2 (CHO produced, R&D Systems, Minneapolis MN, USA) overnight at room temperature.

[10] = target: T8, fibroblast growth factor (FGF)-2; experiment: ELISA, peptide coated, GF 1 µg/mL
Experimental: as §1, §2

[11] = target: T9, platelet-derived growth factor (PDGF)-BB; experiment: ELISA, peptide coated, GF 1 µg/mL
Experimental: as §1, §2

[12] = target: T4, vascular endothelial growth factor …; experiment: cell-based or functional assay
[13] = target: T9, platelet-derived growth factor (PDGF)-BB; experiment: cell-based or functional assay
[14] = target: T9, platelet-derived growth factor (PDGF)-BB; experiment: ELISA; peptide coated (10 µg/mL, legend paragraph 53), 1 µg/mL PDGF-BB in solution, BSA-coated wells as control [panel E]
Experimental: as §1, §2

[15] = target: T3, placental growth factor (PlGF)-2; experiment: ELISA; peptide coated (10 µg/mL, legend paragraph 53), 1 µg/mL PlGF-2 in solution, BSA-coated wells as control [panel D]
Experimental: as §1, §2

[16] = target: T2, vascular endothelial growth factor …; experiment: ELISA; peptides and vWF forms coated at 50 nM, VEGF-A in solution, detected with anti-VEGF-A antibody [panel D]
Experimental: (A) Diagram of exon sequence of VEGF-A showing inclusion (+) or exclusion (−) of heparin binding domain exons for the different VEGF-A isoforms. […] Bound VEGF-A was detected using a specific antibody for VEGF-A (n=4, mean±SD). Statistical comparisons were done using ANOVA with Tukey's test compared with BSA control. **p<0.01.
ELISA was performed as previously reported1. […] After blocking with 2% BSA solution containing PBS-T, 1 μg/mL of recombinant human VEGF-A121 (PeproTech), recombinant human VEGF-A145 (R & D Systems), or recombinant human VEGF-A165 (PeproTech) was added. Bound VEGF-A was detected with 1 μg/mL of mouse anti-human VEGF-A antibody (clone: 26503, R & D systems). After 60 min of incubation, horseradish peroxidase (HRP) conjugated goat anti-mouse antibody (1:2000 dilution, Dako) was added and incubated for another 60 min. Color development and the absorbance measurement were done as described above.

Binder	binding result [1]	binding result [2]	binding result [3]	binding result [4]	binding result [5]	binding result [6]	binding result [7]	binding result [10]	further results
TPGLGPRGLQATARKASRRSRQPARHPACML (Chemically synthesized (Genscript)) [laminin α5 3300-3330 peptide (Linker)]	no binding (tested: 1 µg/mL)	no binding (tested: 1 µg/mL)	binds	binds	binds	binds	binds		binding result [8]: binds; binding result [9]: no binding (tested: 1 µg/mL PDGF-BB (single concentration))
B1									Kd (bovine type I collagen): ~1.7 nM; binding result (recombinant human BMP-2): binds
RQRSRPGRWHKVSVRWEKNR (Chemically synthesized (Genscript)) [laminin α5 3417-3436 peptide (LG4)]	no binding (tested: 1 µg/mL)	no binding (tested: 1 µg/mL)	binds	binds	binds	binds	binds	binds	binding result [11]: binds
NQEQVSPLRLVFALGTDGKKLRIKSKEKCNDGK [α2PI1-8-α3 3043-3067]									cumulative release of GF from peptide-functionalized fibrin matrix after 5 days [12]: 25%; cumulative release of GF from peptide-functionalized fibrin matrix after 5 days [13]: 45%
B2									Kd (bovine type I collagen): ~2.8 nM
PLFLLHKKGKNLSKPKASQNKKGGKSK (Chemically synthesized (Genscript)) [laminin α4 1408-1434 peptide (Linker)]	no binding (tested: 1 µg/mL)	no binding (tested: 1 µg/mL)	binds	binds	binds	binds	binds	binds	binding result [11]: binds
PPFLMLLKGSTRFNKTKTFR (Chemically synthesized (Genscript)) [laminin α3 2932-2951 peptide (Linker)]	no binding (tested: 1 µg/mL)	no binding (tested: 1 µg/mL)		binds				binds	binding result [14]: binds; binding result [15]: binds
B3									binding result [16]: no binding (tested: 1 µg/mL VEGF-A121 (single concentration))
NQEQVSPLRQRSRPGRWHKVSVRWEKNR [α2PI1-8-α5 3417-3436]									cumulative release of GF from peptide-functionalized fibrin matrix after 5 days [12]: 31%; cumulative release of GF from peptide-functionalized fibrin matrix after 5 days [13]: 47%
